From publication PMC6178561
Read-outs that look alike come from different tables or passages of the source.

B1: Myc-Cdc37 (cell division cycle 37) (natural protein)
chain: MVDYSKWKNIEISDDEDDTHPNIDTPSLFRWRHQARVERMAEMDHEKDELKKKRQSYQARLMDVKERISKKDGDEEALKKELEKIEAEGKELDRIESEMIKKEKKTPWNVDTISKPGFEKTVINKKAGRKPDENLSEEEREQRMKQFVKENEKLCQQYGMLRKYDDSKRFLQEHLHLVGEETANYLVIWSINLEMEEKHELMAHVAHQCICMQYILELAKQLDVDPRACVSSFFSKIQHCHPEYRAQFDSEIEGFKGRIQKRAQEKIQEAIAQAEEEERKERLGPGGLDPADVFESLPDELKACFESRDVELLQKTIAAMPVDVAKLHMKRCVDSGLWVPNAADLEGDKKEEDDSDDVAGGEEKTDDAKSESAAKEEPIYTGVSTEDVD

Legend:
[1] = target: HA-InR^intra (intracellular domain of insulin receptor including the kinase domain) (Drosophila) (UniProt P09208); test: proximity ligation
[2] = target: HA-InR^intra (intracellular domain of insulin receptor including the kinase domain) (Drosophila) (UniProt P09208); test: proximity ligation; remark: listed apart in the source

UniProt P09208, sequence (P09208 1086-2144): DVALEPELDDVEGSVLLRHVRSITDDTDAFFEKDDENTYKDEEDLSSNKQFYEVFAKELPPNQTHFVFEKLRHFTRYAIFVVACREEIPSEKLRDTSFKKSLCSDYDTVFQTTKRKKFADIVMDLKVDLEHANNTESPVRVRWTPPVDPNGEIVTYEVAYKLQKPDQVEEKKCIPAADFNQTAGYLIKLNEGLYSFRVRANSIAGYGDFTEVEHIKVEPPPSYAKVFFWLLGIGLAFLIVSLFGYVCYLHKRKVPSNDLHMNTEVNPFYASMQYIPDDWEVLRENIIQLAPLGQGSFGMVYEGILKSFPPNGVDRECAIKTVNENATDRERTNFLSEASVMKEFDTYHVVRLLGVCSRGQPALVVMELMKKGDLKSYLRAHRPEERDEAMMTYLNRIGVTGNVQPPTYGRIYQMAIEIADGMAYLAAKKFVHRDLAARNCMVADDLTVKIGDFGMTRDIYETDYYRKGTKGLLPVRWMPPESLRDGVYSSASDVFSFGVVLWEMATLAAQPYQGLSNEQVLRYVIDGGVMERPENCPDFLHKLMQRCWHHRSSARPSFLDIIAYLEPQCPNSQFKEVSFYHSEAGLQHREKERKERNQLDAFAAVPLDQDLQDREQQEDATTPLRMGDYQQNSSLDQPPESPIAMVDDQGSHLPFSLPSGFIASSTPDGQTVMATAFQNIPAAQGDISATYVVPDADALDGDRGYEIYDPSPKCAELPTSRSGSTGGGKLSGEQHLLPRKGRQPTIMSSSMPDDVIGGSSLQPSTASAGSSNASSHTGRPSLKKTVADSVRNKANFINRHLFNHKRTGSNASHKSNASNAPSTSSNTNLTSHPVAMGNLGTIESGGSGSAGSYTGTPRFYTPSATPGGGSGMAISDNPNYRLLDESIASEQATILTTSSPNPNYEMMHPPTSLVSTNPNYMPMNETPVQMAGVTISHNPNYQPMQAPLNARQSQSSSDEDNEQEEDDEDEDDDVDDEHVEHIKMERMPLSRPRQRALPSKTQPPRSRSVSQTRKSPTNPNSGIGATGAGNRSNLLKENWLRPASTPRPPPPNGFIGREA

| Molecule | PLA foci per cell (average) (PLA foci per cell) [1] | percent of cells with PLA signal [1] [%] | percent of cells with moderate PLA signals (11-30 foci) [1] [%] | percent of cells with strong PLA signals (>30 foci) [1] [%] | percent of cells with weak PLA signals (≤10 foci) [1] [%] | percent of cells with PLA signal [2] [%] | percent of cells with moderate PLA signals [2] [%] | percent of cells with strong PLA signals [2] [%] | percent of cells with weak PLA signals [2] [%] |
| --- | --- | --- | --- | --- | --- | --- | --- | --- | --- |
| Myc-Hsp83 (heat shock protein 83) (from UniProt P02828 1-717) (natural protein) | 12.8 | 90.9 | 41.8 | 12.7 | 36.4 |  |  |  |  |
| B1 |  |  |  |  |  | 86.8 | 31.4 | 4.1 | 51.3 |
